Assay results from the supplement of paper PMC12042874.
± gives the uncertainty stated by the source.

Assay: amyloid nucleation score (Sup35N fusion, yeast selection) (log enrichment); library NNK1; higher = more nucleation; inactive = no reads after selection
Summary of the method: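 Yeast lacking psi expressed peptides of 20 random codons fused to Sup35N, received 100 μM copper sulfate for 24 hours, and were then grown for 7 days at 30°C on medium lacking adenine and uracil. Illumina sequencing of input and output plasmid inserts provided the reads. Nucleation scores are DiMSum log enrichments of output over input, centred on the mode of non-aggregating sequences. Any sequence with under 100 input reads was excluded.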

Row | Substance | amyloid nucleation score
1 | SCERW | -0.111 ± 0.45
2 | RWMSYHIVPRRGSYCVTTLT | 0.492 ± 0.85
3 | VDKKRAISCKSFRLYGRFSL | -0.647 ± 0.32
4 | FYFSASATIL | -0.093 ± 0.81
5 | RWRLFLRAMSLYDDVSHASA | 0.287 ± 0.23
6 | LRNVYLSGKFVYRGELNCET | 0.95 ± 0.31
7 | VYAYTQLKQGRRHEQGTWS | inactive
8 | YLQIWRLSRRSILL | inactive
9 | EACNNQNFCRTSNGESSTTV | 0.324 ± 0.75
10 | NPRPH | -0.601 ± 0.62
11 | GSPLVVSKTVVFMSGNF | 7.149 ± 0.052
12 | CHNVVGSVKRIRSKFMKCFV | inactive
13 | CRVMEKIEVCYIRYFFSWLD | 0.574 ± 0.39
14 | YFSFLDNGGMPYVVVDYGLC | 0.042 ± 0.85
15 | FQARHIFHVFLVSSSRVRLT | 1.65 ± 0.47
16 | YLMKRSWTGMIGLGTQVKSS | 0.9 ± 0.58
17 | VKIHASEVYFPMQSTYLMVD | 0.086 ± 0.72
18 | GYHSFGLVHEGETGK | inactive
19 | CSSPRTTLEYWNCFFDHWWS | 2.64 ± 0.2
20 | DMVYYNEIPKGRYQHPAG | 0.593 ± 0.56
21 | NIFIFTVSHKPNY | 7.926 ± 0.057
22 | NYILFWRTSSNFECPYP | 0.181 ± 0.24
23 | NLKVESPGNGSWICTLEWVW | 6.645 ± 0.054
24 | SHVVCVCLRDLPRIFVFVEK | 6.63 ± 0.07

Row | Substance | amyloid nucleation score
25 | FSRCCTFSSDYFNARCIERN | 1.22 ± 0.23
26 | VRGLWFYN | 0.088 ± 0.72
27 | NGTIHMPLVWGYKLDRPRGW | 0.969 ± 0.7
28 | SRCCGPCYTAV | -0.115 ± 0.3
29 | RLDIDFNGLRMFLNVFLMVV | -0.188 ± 0.2
30 | CFSMILVYYVLFARFVSWSM | 0.15 ± 0.41
31 | ICSYTSIVYLFWDDLSLSTL | 1.7 ± 0.64
32 | LFRGT | -0.457 ± 0.27
33 | MISGCLRVLMRAGVKHYVFM | 0.369 ± 0.93
34 | FMLERYFQ | -0.157 ± 0.24
35 | TAASTHLVSACTLTKRCERL | -0.673 ± 0.92
36 | TYPYRPLHSPFTNRFLSPNG | -0.926 ± 0.73
37 | QYRHTQSYRLELKVHGDFKR | -0.171 ± 1.1
38 | SLMRPCKCNAYCMIELITLY | inactive
39 | ISALGF | 1.98 ± 0.72
40 | GVGLDCFDRTWFWMFQTPQC | 0.483 ± 0.35
41 | SSYSYSDLRTRYIRITSQLD | 0.203 ± 0.47
42 | LNVYWRPCNN | 0.717 ± 0.9
43 | PLVNVYSSAYYSRHLKGLCV | -0.782 ± 0.69
44 | FLKFDTSMVVLGWTFLMESF | -0.023 ± 0.41
45 | KLRRSIDTCNVYVWS | -0.593 ± 0.23
46 | INRCGGVPARLLLCKLGYLG | 0.298 ± 0.5
47 | YFAYQDILVNDTIRIL | 0.063 ± 0.56
48 | TEGRKSSNVQ | 0.577 ± 0.47

Row | Substance | amyloid nucleation score
49 | LPGTSRRASRCLFACYVDMS | 0.676 ± 0.39
50 | NTSELRGNMSRHCKNSGGVI | -0.058 ± 0.62
51 | KKVSLRLSSAVILSANSAML | -0.258 ± 0.54
52 | CAHIY | -0.747 ± 0.99
53 | NFYTFFQTRGFLSLSACALR | -1.12 ± 2.7
54 | VSMHYYAGTYSLNNSLV | -0.819 ± 1.1
55 | ALTVTCFLVPGSYIIHVGMK | -0.332 ± 0.37
56 | YSNLIDGS | 7.378 ± 0.047
57 | VGNNKLFKTPMKDRELMICL | -0.184 ± 0.48
58 | TKDGIT | 0.305 ± 0.97
59 | AAFDRNSEGNAPMPVMCPCI | 0.34 ± 0.75
60 | SCDYGL | 0.512 ± 0.63
61 | RFVMRPFATVSTFSISVPAC | -0.638 ± 0.74
62 | KKTGVVGVYK | -1.26 ± 1.1
63 | TCPWWTVIVFTSESMP | inactive
64 | VGFGPVWTRPYNTWYNYGKS | 0.514 ± 0.66
65 | VTRDMCGYLVCFWQYAG | 7.728 ± 0.045
66 | DPGPLARKVGRRIEAAIMVA | 0.992 ± 0.49
67 | YRVVACMGCALRLVWLARYR | -0.31 ± 0.3
68 | QVCRARMHMEVGAMGTFHAS | 0.521 ± 0.41
69 | EWVVWVDCRGRYADNVSGGA | -0.558 ± 0.53
70 | TWSLLNIVYMSN | 0.867 ± 0.39
